Results from patent publication US20230140200A1, “COMPOSITIONS AND METHODS FOR DETECTING CELLS UNDERGOING FERROPTOSIS USING AN ANTIBODY” (THE TRUSTEES OF COLUMBIA UNIVERSITY IN THE CITY OF NEW YORK, priority 2020, published 2023).

Columns and labels:
Assay type in all cases: cell-based, human
HT-1080 cells = assay: Immunofluorescence staining of treated cells, quantification of membrane intensity
TfR1 = assay: Western blot of TfR1 during ferroptosis; settings: RSL3-induced and IKE-induced ferroptosis, HT-1080 cells
Description: HT-1080 cells were seeded in DMEM (Corning 10-013-CM) and 10% Hi-FBS with 1% penicillin and streptomycin (PS) with 1% MEM Non-Essential Amino Acids Solution (100×) (Thermo Fisher Scientific 11140-076) 16 h prior to use. DMSO or 1 μM of RSL3 was added and incubated for 4 h. Following treatment, the medium was aspirated from each dish and cells were washed twice with PBS. Cells were lysed with 70 μl lysis buffer (RIPA buffer from ThermoFisher, cat. 89900, 1 mM EDTA, 1 mM PMSF, 1× Halt™ protease inhibitor cocktail from ThermoFisher, cat. 78430 and 1× Halt™ phosphatase inhibitor cocktail from ThermoFisher, cat. 78426). Unlysed cells and debris were pelleted for 15 min at 16,000×g at 4° C. Samples were separated using SDS-PAGE and transferred to a polyvinylidene difluoride membrane. Transfer was performed using the iBlot2 system (Invitrogen). […]

A-673 cells = assay: Immunofluorescence in A-673 cells; settings: 1 μM RSL3, 4 h

B1: 3F3-FMA: Murine monoclonal IgG1 raised against ferroptotic membrane fractions; antigen is transferrin receptor protein 1 (TfR1) (antibody, V domains shown)
VH: EVLLQQSGTELVRPGALVKLSCKASGFNIQDLYIHWVKQRPEQGLEWIGWIDPETDNTIYDPKFQGKASITADTSSNTAYLQLSSLTSEDTAMYYCSTGLLQWYFDVWGAGTAVTVSS
VL: DIVMTQSPSSLAMSIGQKVTMRCKSSQSLLNSYNQKNCLAWYQQKPGQSPKLLLYFVSTRESGVPDRFIGSGSGTDFTLTISSVQAEDLADYFCQQHYSTPLTFGAGTKLELK
co-localization with GM130 (Golgi marker) (HT-1080 cells; 1 μM RSL3, 4 h): located in the Golgi | co-localization with Tom20 (mitochondria) and PDI (ER) markers (HT-1080 cells; 1 μM RSL3, 4 h): not visible in mitochondria or the ER | antibody staining / membrane intensity in RSL3-induced ferroptosis (HT-1080 cells; 1 μM RSL3, 4 h, vs DMSO): stained cell boundaries and the inside puncta became brighter | antibody staining on cell surface in STS-induced apoptosis (HT-1080 cells; 1 μM STS, 6 h): wasn't detected | antibody membrane intensity in camptothecin-induced apoptosis (HT-1080 cells; 2 μM camptothecin, 24 h): no significant increase | antibody membrane intensities in H2O2-treated cells (HT-1080 cells; 1 mM H2O2, 4 h): didn't observe increased membrane intensities | intensity of western blot bands during ferroptosis (TfR1): increased intensity of the bands | 3F3-FMA staining upon ferroptosis induction (A-673 cells): concentrated at the cell boundaries and became brighter
